From publication PMC10397247

T1: P2-AA-1HGe-M
T1 chain: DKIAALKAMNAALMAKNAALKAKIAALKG

T2: P2-AA-1HGe-A
T2 chain: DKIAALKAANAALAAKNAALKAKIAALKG

T3: P2-AA
T3 chain: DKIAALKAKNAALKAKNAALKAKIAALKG

T4: P2-AA-1HGe-T
T4 chain: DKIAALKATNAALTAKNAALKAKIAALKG

T5: P2-AA-1HGe-R
T5 chain: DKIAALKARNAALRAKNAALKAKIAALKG

T6: P2-AA-1HGe-Q
T6 chain: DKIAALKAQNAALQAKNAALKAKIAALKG

T7: P2-AA-1HGe-D
T7 chain: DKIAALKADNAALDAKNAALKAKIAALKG


How the values were obtained:
Experiment in all cases: two-hybrid library CCmax;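 note: natural log of median RNA to DNA barcode read ratio; higher means stronger binding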
Details in all cases: mean of both orientations
P2-AA-1HGe-M = target: T1, P2-AA-1HGe-M
P2-AA-1HGe-A = target: T2, P2-AA-1HGe-A
P2-AA = target: T3, P2-AA
P2-AA-1HGe-T = target: T4, P2-AA-1HGe-T
P2-AA-1HGe-R = target: T5, P2-AA-1HGe-R
P2-AA-1HGe-Q = target: T6, P2-AA-1HGe-Q
P2-AA-1HGe-D = target: T7, P2-AA-1HGe-D

interaction score (P2-AA-1HGe-M) | interaction score (P2-AA-1HGe-A) | interaction score (P2-AA) | interaction score (P2-AA-1HGe-T) | interaction score (P2-AA-1HGe-R) | interaction score (P2-AA-1HGe-Q) | interaction score (P2-AA-1HGe-D) | Binder
2.21 | 1.9 | 1.7 | 2.15 | 1.34 | 1.87 | 1.27 | DEIAALEAWNAALWAENAALEAEIAALEG [P1-AA-1HGe-W]
1.67 | 1.65 | 1.87 | 2.08 | 2.01 | 1.96 | 1.57 | DEIAALEAYNAALYAENAALEAEIAALEG [P1-AA-1HGe-Y]
